# Laboratory results taken from the supplement of paper PMC7877785.
# ± gives the uncertainty stated by the source.
# Assay: self-splicing fitness, log relative to wild type (ln ratio); higher = more splicing; Tetrahymena group I intron in knt gene, E. coli kanamycin selection, DiMSum; sequences stand for … in CUCUCU…GGAGGGAAAAGUUAUCAGGCAUGCACCUGGUAGCUAGUCUUUAAACCAAUAGAUUGCAUCGGUUUAAAAGGCAAGACCGUCAAAUUGCGGGAAAGGGGUCAACAGCCGUUCAGUACCAAGUCUCAGGGGAAACUUUGAGAUGGCCUUGCAAAGGGUAUGGUAAUAAGCUGACGGACAUGGUCCUAACCACGCAGCCAAGUCCUAAGUCAACAGAUCUUCUGUUGAUAUGGAUGCAGUUCACAGACUAAAUGUCGGUCGGGGAAGAUGUAUUCUUCUCAUAAGAUAUAGUCGGACCUCUCCUUAAUGGGAGCUAGCGGAUGAAGUGAUGCAACACUGGAGCCGCUGGGAACUAAUUUGUAUGCGAAAGUAUAUUGAUUAGUUUUGGAGUACUCGUGGUCG
# Outline: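 DiMSum derived fitness as the error-weighted combination of fold changes across replicates, kanamycin versus no kanamycin, normalised to wild type. E. coli BL21(DE3) held the library, which randomised all eight P1ex-region intron nucleotides within the knt kanamycin-resistance gene on pET-22b(+). Six replicate transformations grew overnight at 37°C or 30°C on LB agar with or without 25 μg/mL kanamycin, also containing 100 μg/mL carbenicillin, 50 μM IPTG and 0.2% rhamnose, and pooled colonies were amplicon-sequenced on an Illumina HiSeq 2500.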
sequence,measurement,setting,value
UCUUAGCAAUAUUACGGCCG,self-splicing fitness (ln),30 °C,-2.11 ± 0.37
same,self-splicing fitness (ln),37 °C,-0.349 ± 0.33
UCUUAGCAAUAUUACGGGAA,self-splicing fitness (ln),37 °C,-0.457 ± 0.3
UCUUAGCAAUAUUACGGUAG,self-splicing fitness (ln),37 °C,-2.11 ± 0.41
UCUUAGCAAUAUUACGUCCA,self-splicing fitness (ln),30 °C,-1.92 ± 0.13
same,self-splicing fitness (ln),37 °C,-1.93 ± 0.18
UGAAAGCAAUAUUACGAACG,self-splicing fitness (ln),30 °C,0.0634 ± 0.17
same,self-splicing fitness (ln),37 °C,0.684 ± 0.2
UGAAAGCAAUAUUACGACGA,self-splicing fitness (ln),30 °C,-0.661 ± 0.12
same,self-splicing fitness (ln),37 °C,-0.101 ± 0.12
UGAAAGCAAUAUUACGAGUA,self-splicing fitness (ln),30 °C,-1.45 ± 0.1
same,self-splicing fitness (ln),37 °C,-0.821 ± 0.092
UGAAAGCAAUAUUACGAUAG,self-splicing fitness (ln),30 °C,-1.07 ± 0.098
same,self-splicing fitness (ln),37 °C,-0.612 ± 0.098
UGAAAGCAAUAUUACGCAAU,self-splicing fitness (ln),30 °C,-2.16 ± 0.24
same,self-splicing fitness (ln),37 °C,0.457 ± 0.23
UGAAAGCAAUAUUACGCAGU,self-splicing fitness (ln),30 °C,-3.25 ± 0.22
same,self-splicing fitness (ln),37 °C,-1.3 ± 0.13
UGAAAGCAAUAUUACGCCGG,self-splicing fitness (ln),30 °C,-0.876 ± 0.11
same,self-splicing fitness (ln),37 °C,-0.346 ± 0.15
UGAAAGCAAUAUUACGCGUC,self-splicing fitness (ln),30 °C,-2.59 ± 0.31
same,self-splicing fitness (ln),37 °C,-2.56 ± 0.34
UGAAAGCAAUAUUACGGCUC,self-splicing fitness (ln),30 °C,-1.4 ± 0.13
same,self-splicing fitness (ln),37 °C,-0.842 ± 0.12
UGAAAGCAAUAUUACGGGGC,self-splicing fitness (ln),30 °C,-3.89 ± 0.23
same,self-splicing fitness (ln),37 °C,-2.73 ± 0.19
UGAAAGCAAUAUUACGGUAC,self-splicing fitness (ln),30 °C,-3.27 ± 0.32
same,self-splicing fitness (ln),37 °C,-2.07 ± 0.24
UGAAAGCAAUAUUACGGUUU,self-splicing fitness (ln),30 °C,-1.87 ± 0.1
same,self-splicing fitness (ln),37 °C,-1.16 ± 0.12
UGAAAGCAAUAUUACGUACU,self-splicing fitness (ln),30 °C,-0.121 ± 0.089
same,self-splicing fitness (ln),37 °C,-0.476 ± 0.091
UGAAAGCAAUAUUACGUCUC,self-splicing fitness (ln),30 °C,-3.36 ± 0.24
same,self-splicing fitness (ln),37 °C,-2.18 ± 0.23
UGAAAGCAAUAUUACGUGCA,self-splicing fitness (ln),30 °C,0.0492 ± 0.078
same,self-splicing fitness (ln),37 °C,0.75 ± 0.098
UGAAAGCAAUAUUACGUGUG,self-splicing fitness (ln),30 °C,-1.67 ± 0.077
same,self-splicing fitness (ln),37 °C,-0.52 ± 0.081
UGAAAGCAAUAUUACGUUAU,self-splicing fitness (ln),30 °C,-3.73 ± 0.19
same,self-splicing fitness (ln),37 °C,-1.76 ± 0.11
UGAAAGCAAUAUUACGUUGG,self-splicing fitness (ln),30 °C,-2.36 ± 0.091
same,self-splicing fitness (ln),37 °C,-1.66 ± 0.11
UGAAAGCAAUAUUACGUUUG,self-splicing fitness (ln),30 °C,-2.94 ± 0.13
same,self-splicing fitness (ln),37 °C,-0.682 ± 0.11
UGACAGCAAUAUUACGAACG,self-splicing fitness (ln),30 °C,0.00619 ± 0.095
same,self-splicing fitness (ln),37 °C,0.256 ± 0.1
UGACAGCAAUAUUACGACAA,self-splicing fitness (ln),30 °C,-0.197 ± 0.087
same,self-splicing fitness (ln),37 °C,0.15 ± 0.1
UGACAGCAAUAUUACGACCA,self-splicing fitness (ln),30 °C,-0.143 ± 0.1
same,self-splicing fitness (ln),37 °C,0.216 ± 0.15
UGACAGCAAUAUUACGACUG,self-splicing fitness (ln),30 °C,-0.341 ± 0.06
same,self-splicing fitness (ln),37 °C,0.371 ± 0.091
UGACAGCAAUAUUACGAGUG,self-splicing fitness (ln),30 °C,-1.09 ± 0.054
same,self-splicing fitness (ln),37 °C,-0.833 ± 0.077
UGACAGCAAUAUUACGCAAG,self-splicing fitness (ln),30 °C,-3.51 ± 0.27
same,self-splicing fitness (ln),37 °C,-2.73 ± 0.21
UGACAGCAAUAUUACGCCGG,self-splicing fitness (ln),30 °C,-0.618 ± 0.12
same,self-splicing fitness (ln),37 °C,-0.791 ± 0.15
UGACAGCAAUAUUACGCCUC,self-splicing fitness (ln),30 °C,-3.41 ± 0.26
same,self-splicing fitness (ln),37 °C,-3.24 ± 0.47
UGACAGCAAUAUUACGCCUG,self-splicing fitness (ln),30 °C,-0.292 ± 0.1
same,self-splicing fitness (ln),37 °C,0.595 ± 0.14
UGACAGCAAUAUUACGCUCU,self-splicing fitness (ln),30 °C,-0.946 ± 0.083
same,self-splicing fitness (ln),37 °C,-0.389 ± 0.093
UGACAGCAAUAUUACGGAGG,self-splicing fitness (ln),30 °C,-4.41 ± 0.29
same,self-splicing fitness (ln),37 °C,-3.93 ± 0.21
UGACAGCAAUAUUACGGAUC,self-splicing fitness (ln),30 °C,-4.78 ± 0.32
same,self-splicing fitness (ln),37 °C,-2.21 ± 0.16
UGACAGCAAUAUUACGGCCU,self-splicing fitness (ln),30 °C,-0.801 ± 0.068
same,self-splicing fitness (ln),37 °C,0.131 ± 0.078
UGACAGCAAUAUUACGGCUA,self-splicing fitness (ln),30 °C,-0.14 ± 0.079
same,self-splicing fitness (ln),37 °C,0.942 ± 0.11
UGACAGCAAUAUUACGGCUC,self-splicing fitness (ln),30 °C,-1.37 ± 0.16
same,self-splicing fitness (ln),37 °C,-0.546 ± 0.17
UGACAGCAAUAUUACGGUAU,self-splicing fitness (ln),30 °C,-3.58 ± 0.2
same,self-splicing fitness (ln),37 °C,-2.45 ± 0.21
UGACAGCAAUAUUACGGUUG,self-splicing fitness (ln),30 °C,-2.49 ± 0.13
same,self-splicing fitness (ln),37 °C,-1.56 ± 0.15
UGACAGCAAUAUUACGUAUG,self-splicing fitness (ln),30 °C,-1.56 ± 0.058
same,self-splicing fitness (ln),37 °C,-0.368 ± 0.073
UGACAGCAAUAUUACGUGCG,self-splicing fitness (ln),30 °C,-1.12 ± 0.086
same,self-splicing fitness (ln),37 °C,-0.119 ± 0.097
UGACAGCAAUAUUACGUUUA,self-splicing fitness (ln),30 °C,-0.565 ± 0.061
same,self-splicing fitness (ln),37 °C,-0.556 ± 0.07
UGAGAGCAAUAUUACGAAAA,self-splicing fitness (ln),37 °C,0.153 ± 0.41
UGAGAGCAAUAUUACGACAA,self-splicing fitness (ln),30 °C,-0.796 ± 0.32
same,self-splicing fitness (ln),37 °C,-1.99 ± 0.43
UGAGAGCAAUAUUACGAGGC,self-splicing fitness (ln),30 °C,-2.98 ± 0.22
same,self-splicing fitness (ln),37 °C,-2.17 ± 0.33
UGAGAGCAAUAUUACGAGGG,self-splicing fitness (ln),30 °C,-3.68 ± 0.35
same,self-splicing fitness (ln),37 °C,-1.09 ± 0.36
UGAGAGCAAUAUUACGCAAA,self-splicing fitness (ln),37 °C,-0.61 ± 0.36
